Measurements reported in the PETadex activity labels (doi:10.1016/s0021-9258(17)37371-4).
Changes are numbered by the printed parent chain.

B1: unnamed (protein)
chain: MRPPQCLLHTPSLASPLLLLLLWLLGGGVGAEGREDAELLVTVRGGRLRGIRLKTPGGPVSAFLGIPFAEPPMGPRRFLPPEPKQPWSGVVDATTFQSVCYQAVDTLYPGFEGTEMWNPNRELSEDCLYLNVWTPYPRPTSPTPVLVWIYGGGFYSGASSLDVYDGRFLVQAERTVLVSMNYRVGAFGFLALPGSREAPGNVGLLDQRLALQWVQENVAAFGGDPTSVTLFGESAGAASVGMHLLSPPSRGLFHRAVLQSGAPNGPWATVGMGEARRRATQLAHLVGCPPGGTGGNDTELVACLRTRPAQVLVNHAAHVLPQESVFRFSFVPVVDGDFLSDTPEALINAGDFHGLQVLVGVVKDEGSYFLVYGAPGFSKDNESLISRAEFLAGVRVGVPQVSDLAAEAVVLHYTDWLHPEDPARLREALSDVVGDHNVVCPVAQLAGRLAAQGARVYAYVFEHRASTLSWPLWMGVPHGYEIEFIFGIPLDPSRNYTAEEKIFAQRLMRYWANFARTGDPNEPRDPKAPQWPPYTAGAQQYVSLDLRPLEVRRGLRAQACAFWNRFLPKLLSATDTLDEAERQWKAEFHRWSSYMVHWKNQFDHYSKQDRCSDL
B2: unnamed (protein)
chain: B1 chain with A103Y, D105N, A316E, A317W
B3: unnamed (protein)
chain: B1 chain with A103Y, A316E, A317W, Y368A
B4: unnamed (protein)
chain: B1 chain with A103Y, A316E, A317W, F328A
B5: unnamed (protein)
chain: B1 chain with A316E
B6: unnamed (protein)
chain: B1 chain with A103Y, A317W
B7: unnamed (protein)
chain: B1 chain with A103Y, A316E, A317W, Y372A
B8: unnamed (protein)
chain: B1 chain with A317W
B9: unnamed (protein)
chain: B1 chain with A316E, A317W

Substrate: Acetylcholine
Conditions: pH 8; 27 °C

| Protein | Km [µM] | kcat [s⁻¹] | kcat/Km [M⁻¹ s⁻¹] |
| --- | --- | --- | --- |
| B1 | 300 | 3330 | 1.11e+07 |
| B2 | 600 | 4170 | 6.94e+06 |
| B3 | 100 | 1670 | 1.67e+07 |
| B4 | 310 | 2000 | 6.45e+06 |
| B5 | 300 | 7000 | 2.33e+07 |
| B6 | 280 | 6330 | 2.26e+07 |
| B7 | 300 | 4170 | 1.39e+07 |
| B8 | 240 | 6670 | 2.78e+07 |
| B9 | 130 | 6330 | 4.87e+07 |
